Data published in the RNAGym collection of RNA variant scans (doi:10.1021/acssynbio.7b00057).

B1: Pistol ribozyme (parent)
chain: GGGUCGUUGUUCCAUAAUCGCGUGGAUAUGGCACGCAAGUUUCUACCGGGCACCGUAAAUGUCCGACUGGAGCCGUUCGGGCGGCUAUAAACAGACCUCAGGCCCGAAGCGUGGCGGCACCUGCCGCCGGUGGUAAAAAAGAUCGGAAGAGCACACGUCU

Variants of: B1
Test: aptazyme ON/OFF ratio, guanine; higher = stronger switching; co-transcriptional cleavage with and without guanine

Variant	aptazyme ON/OFF ratio
GGGUCGAGGUCGUAUAAUCGCGUGGAUAUGGCACGCAAGUUUCUACCGGGCACCGUAAAUGUCCGACUGGAGCCGUUCGGGCGGCUAUAAACAGACCUCAGGCCCGAAGCGUGGCGGCACCUGCCGCCGGUGGUAAAAAAGAUCGGAAGAGCACACGUCU [U7A U8G U11C C12G C13U]	1.2
GGGUCGAGGUCGGAUAAUCGCGUGGAUAUGGCACGCAAGUUUCUACCGGGCACCGUAAAUGUCCGACUGGAGCCGUUCGGGCGGCUAUAAACAGACCUCAGGCCCGAAGCGUGGCGGCACCUGCCGCCGGUGGUAAAAAAGAUCGGAAGAGCACACGUCU [U7A U8G U11C C12G C13G]	1.17
GGGUCGAGGUGUCAUAAUCGCGUGGAUAUGGCACGCAAGUUUCUACCGGGCACCGUAAAUGUCCGACUGGAGCCGUUCGGGCGGCUAUAAACAGACCUCAGGCCCGAAGCGUGGCGGCACCUGCCGCCGGUGGUAAAAAAGAUCGGAAGAGCACACGUCU [U7A U8G U11G C12U]	1.29
GGGUCGAGGUGGCAUAAUCGCGUGGAUAUGGCACGCAAGUUUCUACCGGGCACCGUAAAUGUCCGACUGGAGCCGUUCGGGCGGCUAUAAACAGACCUCAGGCCCGAAGCGUGGCGGCACCUGCCGCCGGUGGUAAAAAAGAUCGGAAGAGCACACGUCU [U7A U8G U11G C12G]	1.36
GGGUCGAGGUGACAUAAUCGCGUGGAUAUGGCACGCAAGUUUCUACCGGGCACCGUAAAUGUCCGACUGGAGCCGUUCGGGCGGCUAUAAACAGACCUCAGGCCCGAAGCGUGGCGGCACCUGCCGCCGGUGGUAAAAAAGAUCGGAAGAGCACACGUCU [U7A U8G U11G C12A]	1.31
GGGUCGAUGAUCCAUAAUCGCGUGGAUAUGGCACGCAAGUUUCUACCGGGCACCGUAAAUGUCCGACUGGAGCCGUUCGGGCGGCUAUAAACAGACCUCAGGCCCGAAGCGUGGCGGCACCUGCCGCCGGUGGUAAAAAAGAUCGGAAGAGCACACGUCU [U7A U10A]	1.11
GGGUCGAGGUGCGAUAAUCGCGUGGAUAUGGCACGCAAGUUUCUACCGGGCACCGUAAAUGUCCGACUGGAGCCGUUCGGGCGGCUAUAAACAGACCUCAGGCCCGAAGCGUGGCGGCACCUGCCGCCGGUGGUAAAAAAGAUCGGAAGAGCACACGUCU [U7A U8G U11G C13G]	1.24
GGGUCGAGGUGCAAUAAUCGCGUGGAUAUGGCACGCAAGUUUCUACCGGGCACCGUAAAUGUCCGACUGGAGCCGUUCGGGCGGCUAUAAACAGACCUCAGGCCCGAAGCGUGGCGGCACCUGCCGCCGGUGGUAAAAAAGAUCGGAAGAGCACACGUCU [U7A U8G U11G C13A]	1.26
GGGUCGAGGUGCUAUAAUCGCGUGGAUAUGGCACGCAAGUUUCUACCGGGCACCGUAAAUGUCCGACUGGAGCCGUUCGGGCGGCUAUAAACAGACCUCAGGCCCGAAGCGUGGCGGCACCUGCCGCCGGUGGUAAAAAAGAUCGGAAGAGCACACGUCU [U7A U8G U11G C13U]	1.31
GGGUCGAGGUGGGAUAAUCGCGUGGAUAUGGCACGCAAGUUUCUACCGGGCACCGUAAAUGUCCGACUGGAGCCGUUCGGGCGGCUAUAAACAGACCUCAGGCCCGAAGCGUGGCGGCACCUGCCGCCGGUGGUAAAAAAGAUCGGAAGAGCACACGUCU [U7A U8G U11G C12G C13G]	1.32
GGGUCGAGGUGGUAUAAUCGCGUGGAUAUGGCACGCAAGUUUCUACCGGGCACCGUAAAUGUCCGACUGGAGCCGUUCGGGCGGCUAUAAACAGACCUCAGGCCCGAAGCGUGGCGGCACCUGCCGCCGGUGGUAAAAAAGAUCGGAAGAGCACACGUCU [U7A U8G U11G C12G C13U]	1.42
GGGUCGAGGUGGAAUAAUCGCGUGGAUAUGGCACGCAAGUUUCUACCGGGCACCGUAAAUGUCCGACUGGAGCCGUUCGGGCGGCUAUAAACAGACCUCAGGCCCGAAGCGUGGCGGCACCUGCCGCCGGUGGUAAAAAAGAUCGGAAGAGCACACGUCU [U7A U8G U11G C12G C13A]	1.15
GGGUCGAGGUCUCAUAAUCGCGUGGAUAUGGCACGCAAGUUUCUACCGGGCACCGUAAAUGUCCGACUGGAGCCGUUCGGGCGGCUAUAAACAGACCUCAGGCCCGAAGCGUGGCGGCACCUGCCGCCGGUGGUAAAAAAGAUCGGAAGAGCACACGUCU [U7A U8G U11C C12U]	1.31
GGGUCGAGGUGCCAUAAUCGCGUGGAUAUGGCACGCAAGUUUCUACCGGGCACCGUAAAUGUCCGACUGGAGCCGUUCGGGCGGCUAUAAACAGACCUCAGGCCCGAAGCGUGGCGGCACCUGCCGCCGGUGGUAAAAAAGAUCGGAAGAGCACACGUCU [U7A U8G U11G]	1.95
GGGUCGAUGAUAAAUAAUCGCGUGGAUAUGGCACGCAAGUUUCUACCGGGCACCGUAAAUGUCCGACUGGAGCCGUUCGGGCGGCUAUAAACAGACCUCAGGCCCGAAGCGUGGCGGCACCUGCCGCCGGUGGUAAAAAAGAUCGGAAGAGCACACGUCU [U7A U10A C12A C13A]	1.27
GGGUCGAUGAUAGAUAAUCGCGUGGAUAUGGCACGCAAGUUUCUACCGGGCACCGUAAAUGUCCGACUGGAGCCGUUCGGGCGGCUAUAAACAGACCUCAGGCCCGAAGCGUGGCGGCACCUGCCGCCGGUGGUAAAAAAGAUCGGAAGAGCACACGUCU [U7A U10A C12A C13G]	1.1
GGGUCGAUGAUAUAUAAUCGCGUGGAUAUGGCACGCAAGUUUCUACCGGGCACCGUAAAUGUCCGACUGGAGCCGUUCGGGCGGCUAUAAACAGACCUCAGGCCCGAAGCGUGGCGGCACCUGCCGCCGGUGGUAAAAAAGAUCGGAAGAGCACACGUCU [U7A U10A C12A C13U]	1.39
GGGUCGAUGAUACAUAAUCGCGUGGAUAUGGCACGCAAGUUUCUACCGGGCACCGUAAAUGUCCGACUGGAGCCGUUCGGGCGGCUAUAAACAGACCUCAGGCCCGAAGCGUGGCGGCACCUGCCGCCGGUGGUAAAAAAGAUCGGAAGAGCACACGUCU [U7A U10A C12A]	1.31
